Data: US10513545B2, “Fusion polypeptide in which anti-inflammatory polypeptide and ferritin monomer fragment are bound and pharmaceutical composition for preventing and treating inflammatory diseases, containing same as active ingredient” (KYUNGPOOK NATIONAL UNIVERSITY INDUSTRY-ACADEMIC COOPERATION …, priority 2015, dated 2019)

Assays:
CLP-induced sepsis [1] = experiment: serum organ injury markers (ALT, AST, creatinine, BUN, LDH) in CLP-induced sepsis; assay type: in vivo, mouse; settings: FIG. 17
Method: (§1) To induce inflammation, male mice were anesthetized with 2% isoflurane (JW Pharmaceutical, Republic of Korea) in oxygen delivered via a small rodent gas anesthesia machine (RC2, Vetequip, Pleasanton, Calif.), first in a breathing chamber and then via a facemask. They were allowed to breathe spontaneously during this procedure. The CLP-induced inflammation model was prepared as previously described. In brief, a 2-cm midline incision was made to expose the cecum and adjoining intestine. The cecum was then tightly ligated with a 3.0-silk suture at 5.0 mm from the cecal tip and punctured once using a 22-gauge needle for the induction of high grade inflammation. It was then squeezed gently to extrude a small amount of feces from the perforation site and returned to the peritoneal cavity. The laparotomy site was then sutured with 4.0-silk. In sham control animals, the cecum was exposed but not ligated or punctured and then returned to the abdominal cavity. This protocol was approved by the Animal Care Committee at Kyungpook National University prior to the conduct of the study (IRP No, KNU 2012-13).
Fresh serum was used for assaying aspartate transaminase (AST), alanine transaminase (ALT), blood urea nitrogen (BUN), creatinine, and LDH using biochemical kits (Mybiosource). To determine the concentrations of IL-6, IL-10, and TNF-α, commercially available ELISA kits were used according to the manufacturer's protocol (R&D Systems). Values were measured using an ELISA plate reader (Tecan, Austria GmbH, Austria).

CLP-induced sepsis [2] = experiment: survival in animal model of CLP-induced sepsis; assay type: in vivo, mouse; settings: for survival rate: in comparison with PC-Gla and TRAP co-administration group, FIG. 14; for overall effectiveness in sepsis treatment: taken together, in comparison with PC-Gla and TRAP co-administered group
Method: Male C57BL/6 mice (6-7 weeks of age, 18-20 g) were purchased from Orient Biotech (Seongnam, Gyeonggi Province, Republic of Korea) and used after 12 days of acclimation. Five mice per cage were housed under the conditions of a controlled temperature (20-25° C.), humidity (40-45%), and 12:12 h day/night cycle, while being fed with a normal rodent pellet and water ad libitum. All animals were treated according to the Guidelines for the Care and Use of Laboratory Animals issued by Kyungpook National University.
as §1
All experiments were performed independently at least three times. Values are expressed as means±SEM. The statistical significance of differences between test groups was evaluated using SPSS for Windows, version 16.0 (SPSS, Chicago, Ill.). Statistical relevance was determined by one-way analysis of variance (ANOVA) and Tukey's post-test. P values less than 0.05 were considered to indicate a statistical significance. Survival analysis of CLP-induced sepsis was performed using Kaplan-Meier analysis.

EPCR = target: T1, EPCR (Mus musculus, UniProt Q64695); experiment: histological analysis of EPCR binding in vivo (mouse vena cava); settings: injected intravenously, FIG. 11
T1 construct: from tissue; host or cells: mouse vena cava
T1 sequence (Q64695 18-242): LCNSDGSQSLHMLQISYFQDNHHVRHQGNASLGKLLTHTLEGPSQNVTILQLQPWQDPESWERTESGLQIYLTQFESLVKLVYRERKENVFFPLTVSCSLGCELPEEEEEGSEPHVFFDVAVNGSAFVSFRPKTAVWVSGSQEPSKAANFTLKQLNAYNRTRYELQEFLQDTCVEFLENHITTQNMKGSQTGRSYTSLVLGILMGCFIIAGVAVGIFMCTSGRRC
Method: Twenty-four hours prior to CLP surgery, fluorescence labeled-PC-Gla, TFG, and TFMG (200 nM/mouse) was intravenously injected into the mice, respectively. After 24 h, mouse vena cava was enucleated and fixed in visikol for 24 h. Subsequently, vena cava was embedded in optimum cutting temperature (OCT) compound (Tissue Tek) at −80° C. Consecutive sections were incubated with anti-EPCR antibody (Santa Cruz, Calif.), anti-rabbit Alexa 488 (green), anti-CD31 antibody, and anti-rabbit Alexa 350 (blue), and observed by confocal microscopy at 63× magnification (TCS-SP5, Leica microsystem, Germany).

[3] = system: VCAM-1, ICAM-1 and E-selectin on HUVECs; experiment: expression of cell adhesion molecules (CAMs), whole-cell ELISA; assay type: cell-based, human; settings: LPS 100 ng/mL, FIG. 21A
Method: The expression of vascular cell adhesion molecule-1 (VCAM-1), intercellular adhesion molecule-1 (ICAM-1), and E-selectin on HUVECs were determined by a whole-cell ELISA as described. Briefly, confluent monolayers of HUVECs were treated with PC-Gla with TRAP, TFG, or TFMG for 6 h followed by LPS (100 ng/mL) for 16 h (VCAM-1 and ICAM-1) or 24 h (E-Selectin). After washing, mouse anti-human monoclonal VCAM-1 (100 μM; clone; 6C7.1), ICAM-1 (clone; P2A4) and E-selectin (clone; P3H3) antibodies (Millipore Corporation, 1:50 each) were added. After 1 h (37° C., 5% CO2), the cells were washed three times and then 1:2000 peroxidase-conjugated anti-mouse IgG antibody (100 μl; Sigma) was added for 1 h. The cells were washed again three times and developed using the o-phenylenediamine substrate (Sigma). Colorimetric analysis was performed by measuring absorbance at 490 nm. All measurements were performed in triplicate wells.

CLP-induced sepsis [4] = experiment: in vivo vascular permeability assay (Evans blue leakage); set-up: species or system mouse; settings: CLP-operated mice, intravenous, FIG. 20
Method: CLP-operated mice were injected with PC-Gla with TRAP, TFG, or TFMG intravenously. After 6 h, 1% Evans blue dye solution in normal saline was injected intravenously into each mouse. Thirty minutes later, the mice were sacrificed, and the peritoneal exudates were collected after being washed with normal saline (5 mL) and centrifuged at 200×g for 10 min. The absorbance of the supernatant was read at 650 nm. The vascular permeability was expressed in terms of dye (mg/mouse), which leaked into the peritoneal cavity according to a standard curve of Evans blue dye, as previously described.

PAR-1 = PAR-1 cleavage assay in transfected HUVECs (ALP activity); assay type: cell-based; settings: FIG. 13
Method: HUVECs at 90% confluence in 24-well plates were transiently transfected with pRc/RSV containing ALP-PAR-1-TF cDNA in antibiotic-free Opti-MEM medium using Lipofectamine (Invitrogen) according to the manufacturer's instruction. On the following day, cells were washed and incubated in serum-free medium for 5 h. Cells were then incubated for an additional hour with thrombin, TRAP, TFG, or TFMG. Conditioned medium was collected and centrifuged to remove cellular debris. Supernatant was collected, and ALP (alkaline phosphatase) activity was measured using EnzoLyte™ p-nitrophenyl phosphate alkaline phosphatase assay kit (AnaSpec, San Jose, Calif.) according to the manufacturer's instructions.

Molecule | toxicity indicator for general organs (LDH) (CLP-induced sepsis [1]) | toxicity indicators for kidneys (creatinine and BUN) (CLP-induced sepsis [1]) | toxicity indicators for liver (ALT and AST) (CLP-induced sepsis [1]) | survival rate (CLP-induced sepsis [2]) | overall effectiveness in sepsis treatment (CLP-induced sepsis [2]) | in vivo binding by immunohistochemistry (EPCR) | LPS-mediated upregulation of CAMs [3] | in vivo vascular permeability (CLP-induced sepsis [4]) | PAR-1 cleavage activity (ability to activate PAR-1) (PAR-1)
TFMG: as TFG with an MMP-2 cleavable linker (GPLGLAG) between ferritin fragment C-terminus and PC-Gla (apparently SEQ ID NO: 15) (protein, Fusion polypeptide (2)) MGGTTFLLRNASGHMSSQIRQNYSTDVEAAVNSLVNLYLQASYTYLSLGFYFDRDDVALEGVSHFFRELAEEKREGYERLLKMQNQRGGRIFLQDIKKPAEDEWGKTPDAMKAAMALEKKLNQALLDLHALGSARTDPHLCDFLETHFLDEEVKLIKKMGDHLTNLHRLGGGSEFVDGGGSGTSGPLGLAGANSFLEELRHSSLERECIEEICDFEEAKEIFQNVDDTLAFWSKHVLEHHHHHH | considerably improved | considerably improved | considerably improved | significantly improved | more effective antiseptic than TFG | colocalized with EPCR and CD31 | inhibited | alleviated | strong similarities
TFG: fusion polypeptide: TRAP at N-terminus and PC-Gla at C-terminus of short ferritin monomer fragment, forms nanocage (apparently SEQ ID NO: 14) (protein, Fusion polypeptide (1)) MGGTTFLLRNASGHMSSQIRQNYSTDVEAAVNSLVNLYLQASYTYLSLGFYFDRDDVALEGVSHFFRELAEEKREGYERLLKMQNQRGGRIFLQDIKKPAEDEWGKTPDAMKAAMALEKKLNQALLDLHALGSARTDPHLCDFLETHFLDEEVKLIKKMGDHLTNLHRLGGGSEFVDGGGSGTSANSFLEELRHSSLERECIEEICDFEEAKEIFQNVDDTLAFWSKHVLEHHHHHH | considerably improved | considerably improved | considerably improved | significantly improved | significantly effective | colocalized with EPCR and CD31 | inhibited | alleviated | strong similarities
